Experimental data: patent US20240100134

How the values were obtained:
[1] = system: recombinant plasminogen-linker-Fc fusion (human plasminogen, QA linker GQAGQAS, Fc)
[2] = system: recombinant human plasminogen (not fused to Fc, wild-type)
Chain of recombinant human plasminogen (not fused to Fc, wild-type) (chain, as listed by the source): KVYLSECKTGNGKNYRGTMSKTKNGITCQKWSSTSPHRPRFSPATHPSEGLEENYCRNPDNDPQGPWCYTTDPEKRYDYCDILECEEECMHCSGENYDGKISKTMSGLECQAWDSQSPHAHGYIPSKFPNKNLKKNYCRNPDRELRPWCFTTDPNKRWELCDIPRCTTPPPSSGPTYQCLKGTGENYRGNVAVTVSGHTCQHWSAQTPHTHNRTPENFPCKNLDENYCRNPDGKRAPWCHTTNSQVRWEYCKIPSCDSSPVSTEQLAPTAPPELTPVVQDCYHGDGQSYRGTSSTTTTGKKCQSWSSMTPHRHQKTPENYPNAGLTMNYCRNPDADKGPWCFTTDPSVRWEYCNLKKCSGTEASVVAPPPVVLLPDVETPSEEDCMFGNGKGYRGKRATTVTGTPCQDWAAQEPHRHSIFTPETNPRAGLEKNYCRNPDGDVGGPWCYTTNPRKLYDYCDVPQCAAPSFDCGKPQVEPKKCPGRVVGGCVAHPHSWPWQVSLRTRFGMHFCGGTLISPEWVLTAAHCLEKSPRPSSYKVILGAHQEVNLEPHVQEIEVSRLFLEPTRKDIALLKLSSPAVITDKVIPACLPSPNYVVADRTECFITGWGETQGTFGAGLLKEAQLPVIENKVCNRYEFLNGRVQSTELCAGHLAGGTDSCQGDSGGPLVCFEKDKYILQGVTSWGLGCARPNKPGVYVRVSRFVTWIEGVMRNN

Chain of recombinant plasminogen-linker-Fc fusion (human plasminogen, QA linker GQAGQAS, Fc) (chain, as listed by the source): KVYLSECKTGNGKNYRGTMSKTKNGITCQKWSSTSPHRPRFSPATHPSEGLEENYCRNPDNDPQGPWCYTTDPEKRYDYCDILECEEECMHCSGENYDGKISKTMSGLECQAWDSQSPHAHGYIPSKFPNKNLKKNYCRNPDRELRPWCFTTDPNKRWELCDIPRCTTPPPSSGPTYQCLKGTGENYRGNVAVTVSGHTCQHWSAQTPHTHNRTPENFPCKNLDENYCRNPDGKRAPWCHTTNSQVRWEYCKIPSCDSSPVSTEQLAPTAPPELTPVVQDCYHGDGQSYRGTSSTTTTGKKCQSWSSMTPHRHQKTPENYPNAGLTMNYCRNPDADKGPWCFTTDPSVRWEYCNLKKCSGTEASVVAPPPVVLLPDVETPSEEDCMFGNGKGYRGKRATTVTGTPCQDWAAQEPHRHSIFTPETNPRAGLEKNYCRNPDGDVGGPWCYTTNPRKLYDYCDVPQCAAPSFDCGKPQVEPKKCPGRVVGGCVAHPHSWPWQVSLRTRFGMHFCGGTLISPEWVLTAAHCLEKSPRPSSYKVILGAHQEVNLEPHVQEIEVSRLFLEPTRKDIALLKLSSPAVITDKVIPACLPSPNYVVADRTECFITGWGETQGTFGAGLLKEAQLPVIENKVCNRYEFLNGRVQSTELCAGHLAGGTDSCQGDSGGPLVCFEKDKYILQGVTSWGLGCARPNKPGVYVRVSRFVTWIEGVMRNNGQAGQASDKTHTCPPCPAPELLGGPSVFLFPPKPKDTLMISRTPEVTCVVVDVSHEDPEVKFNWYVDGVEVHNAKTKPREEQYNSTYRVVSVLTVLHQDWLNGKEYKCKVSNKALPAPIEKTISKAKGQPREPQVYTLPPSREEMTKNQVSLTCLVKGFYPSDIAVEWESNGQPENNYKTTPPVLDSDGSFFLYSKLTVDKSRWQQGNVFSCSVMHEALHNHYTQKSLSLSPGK

Substance: urokinase-type plasminogen activator
- Michelis-Menten analysis of activation (KM and Vmax), 10 mM EACA [1]: the kinetics of rPlg and rPlg-Fc activation are similar (as indicated by the KM and Vmax)
- activation measured by the hydrolysis of plasmin fluorogenic substrate H-Ala-Phe-Lys-AMC [1]: In the presence of tPA or uPA, comparable hydrolytic activity for rPlg and rPlg-Fc is observed
- Michelis-Menten analysis of activation (KM and Vmax), 10 mM EACA [2]: the kinetics of rPlg and rPlg-Fc activation are similar (as indicated by the KM and Vmax)
- activation measured by the hydrolysis of plasmin fluorogenic substrate H-Ala-Phe-Lys-AMC [2]: In the presence of tPA or uPA, comparable hydrolytic activity for rPlg and rPlg-Fc is observed
